Reference: PMC8316464

Legend:
Test in all cases: SPR; Biacore S200; Bcl-2 family proteins immobilised on CM5 (amine coupling or His-Capture Kit); peptides and flag-tagged proteins as analytes, single-cycle kinetics, HBS-EP, 25 °C; 1:1 Langmuir model; absence of binding probed at 100 nM and 3 µM
[1] = molecular target: Bcl-xL (human) (UniProt Q07817)
[2] = molecular target: Bcl-2 (human) (UniProt P10415)
[3] = molecular target: His-tagged human Mcl-1 (human) (UniProt Q07820)
Sequence of His-tagged human Mcl-1 (human) (Q07820 whole entry): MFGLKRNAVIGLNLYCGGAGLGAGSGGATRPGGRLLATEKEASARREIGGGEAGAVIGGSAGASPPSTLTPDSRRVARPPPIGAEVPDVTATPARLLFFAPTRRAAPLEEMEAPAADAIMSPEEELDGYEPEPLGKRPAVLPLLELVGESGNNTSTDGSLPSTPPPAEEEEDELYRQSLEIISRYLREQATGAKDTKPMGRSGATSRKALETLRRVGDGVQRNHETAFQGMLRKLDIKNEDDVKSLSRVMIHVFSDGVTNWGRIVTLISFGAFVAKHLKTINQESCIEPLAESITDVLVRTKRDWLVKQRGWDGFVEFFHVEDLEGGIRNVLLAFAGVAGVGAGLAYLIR

Sequence of Bcl-xL (human) (Q07817 whole entry): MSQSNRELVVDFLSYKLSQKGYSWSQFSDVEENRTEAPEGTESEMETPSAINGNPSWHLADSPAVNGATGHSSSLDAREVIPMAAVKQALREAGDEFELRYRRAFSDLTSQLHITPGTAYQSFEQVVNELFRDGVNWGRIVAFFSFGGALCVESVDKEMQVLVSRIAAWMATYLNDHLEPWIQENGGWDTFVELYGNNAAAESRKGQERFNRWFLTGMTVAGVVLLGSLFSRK

In the case of ESQEDIIRNIARHLAQVGDSMDRSI [Bid BH3 peptide (25-mer, residues 77-101)], the Kd [1] is reported as 7.12 nM, the Kd [2] is reported as 96.7 nM and the Kd [3] is reported as 12.8 nM.

Work on ESQEDIIRNIIRHLAQVGDSMDRSI [Bid (A87I) peptide] yielded a Kd [1] of 28.5 nM and a Kd [2] of 158 nM.
